Measured values reported in the supplement of paper PMC10567573.

B1: RAB40B (parent)
chain: YSLTTSSTHKRSSLRKVKLVRPPQ

Variants of: B1
Test: protein stability index of a GFP-peptide fusion (GPS, HEK-293T) (PSI 1-6); higher = more stable
Conditions: c terminus: a fixed tail appended
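Also: lentivirally expressed fusions sorted by FACS into six bins by GFP to DsRed ratio, PSI derived from sequencing read proportions per bin multiplied by bin number.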

Protein stability index, by site and new letter:
S12: F 2.17 | L 2.33 | M 2.63 | E 3.07 | I 2.36 | W 2.23 | N 3.16 | K 3.83 | P 3.15 | H 3.16 | T 3.07 | G 3.36 | R 3.32 | D 3.71 | C 2.41 | Q 3.71 | Y 2.85 | V 2.57 | A 2.97
Y1: L 3.15 | S 4.16 | T 3.66 | V 2.74 | N 4.04 | Q 3.82 | R 3.94 | W 3.19 | P 3.97 | M 3.2
T8: I 2.63 | P 3.38 | L 2.43 | G 3.71 | H 2.76 | D 3.32 | V 2.53 | K 3.02 | N 3.4 | F 2.63 | S 2.89 | R 2.57 | Y 3 | W 2.49 | M 2.98 | A 2.82 | Q 3.26 | C 2.8 | E 3.51
S13: W 1.69 | T 2.4 | C 3.01 | I 2.74 | A 3.25 | P 3.4 | Y 2.53 | D 2.58 | G 2.86 | M 2.47 | L 2.45 | N 3.21 | V 3.06 | H 3.18 | R 3.4 | Q 3.35 | K 3.49 | E 3.21 | F 2.12
S7: A 2.84 | M 2.42 | N 2.98 | W 2.24 | Y 2.35 | G 3.23 | T 2.81 | C 2.92 | V 2.7 | Q 2.9 | F 2.27 | E 3.34 | I 2.6 | D 2.94 | L 2.81 | R 2.62 | P 3.47 | K 3.11 | H 3.07
L19: A 4.17
L3: G 3.18 | V 3.17 | S 3.13 | Q 3.31 | R 3.34 | A 3.88 | W 2.02 | F 2.57 | N 3.3 | I 2.88 | Y 2.24 | H 3.06 | E 3.94 | K 3.43 | D 3.7 | C 3 | P 2.96 | T 3.08 | M 2.97
R15: H 2.51 | M 2.46 | L 2.44 | G 2.97 | T 3.02 | Y 1.86 | N 2.94 | V 2.48 | D 3.54 | Q 3.35 | I 2.13 | E 3.25 | A 2.49 | F 1.94 | K 3.24 | S 2.95 | C 2.81 | W 2.12 | P 3.47
V17: W 2.53 | C 2.91 | Q 3.38 | A 3.28 | T 3.09 | P 3.13 | H 3.55 | N 3.39 | S 3.3 | K 3.47 | R 4.01 | F 2.67 | D 3.33 | L 2.77 | I 2.63 | Y 2.98 | G 3.12 | M 2.75 | E 3.5
S2: T 2.81 | H 2.09 | L 2.48 | K 2.95 | A 2.44 | D 3.75 | R 3.56 | W 1.64 | M 2.81 | F 1.82 | I 1.98 | G 3.06 | E 3.12 | C 2.3 | N 2.96 | Q 2.74 | Y 1.93 | V 2.38 | P 2.74
H9: I 2.61 | D 3.22 | C 2.72 | V 2.65 | Y 2.38 | G 3.23 | K 3.29 | L 3.26 | A 2.75 | P 3.08 | E 2.72 | N 3.11 | Q 3.62 | M 2.52 | W 1.82 | F 2.91 | R 3.29 | T 3.32 | S 3.42
K16: D 3.59 | F 2.13 | W 2.14 | I 1.95 | E 3.52 | Q 3.08 | T 3.03 | H 2.54 | M 2.35 | L 2.35 | G 2.81 | R 2.99 | A 2.93 | Y 2.9 | N 3.19 | P 3.06 | V 2.1 | S 2.93 | C 2.58
L14: H 3.46 | F 2.62 | T 3.87 | A 3.68 | Q 3.98 | W 2.38 | E 3.82 | V 3.25 | N 3.77 | K 3.37 | Y 3.06 | G 3.79 | I 3.37 | R 3.69 | M 2.64 | S 3.5 | P 3.86 | C 2.6 | D 3.83
T5: S 3.07 | A 3.48 | K 3.2 | D 3.4 | G 3.25 | V 2.79 | M 2.97 | Q 3.44 | C 2.62 | P 3.05 | F 2.05 | I 1.86 | E 3.62 | L 2.91 | R 3.43 | W 1.45 | N 3.83 | H 2.81 | Y 2.53
K18: S 3.06 | A 3.2 | H 3.71 | W 2.32 | T 2.81 | M 2.22 | Q 3.09 | P 3.47 | I 2.34 | V 2.68 | N 2.98 | Y 2.05 | C 2.63 | D 3.81 | L 2.49 | E 3.43 | R 2.38 | F 2.54 | G 2.81
S6: C 2.95 | M 2.62 | N 2.77 | V 2.83 | R 2.96 | Y 2.48 | G 3.34 | H 3.42 | I 2.58 | D 3.05 | T 3.29 | A 2.88 | P 2.63 | F 2.38 | L 2.93 | Q 2.92 | W 2.17 | K 3.33 | E 3.57
R11: M 2.99 | W 1.87 | A 3.68 | E 3.33 | V 2.52 | F 2.32 | Q 3.46 | K 3.17 | T 3.67 | I 2.46 | D 3.4 | P 2.75 | C 2.59 | G 2.83 | L 2.3 | S 2.77 | H 3.15 | Y 2.51 | N 2.87
K10: G 3.21 | E 3.67 | W 1.89 | F 2.62 | H 2.68 | Y 3.05 | D 3.23 | N 2.85 | M 3.3 | V 2.55 | I 2.02 | A 3.14 | S 3.02 | L 2.81 | T 2.43 | P 2.92 | Q 2.3 | R 3.18 | C 2.3
T4: A 3.06 | P 3.16 | M 2.55 | S 3.38 | E 3.52 | C 2.48 | K 3.33 | Q 3.82 | W 1.35 | G 3.33 | F 1.77 | V 2.7 | I 2.53 | Y 2.17 | D 3.85 | R 3.33 | N 3.31 | H 2.81 | L 3.26
